Columns and labels:
[1] = system: MDA-MB-435 breast carcinoma cells; assay: Inhibition of MDA-MB-435 cell adhesion to immobilized fibronectin (MTS readout); assay type: cell-based, human; settings: 0-1000 nM, 30 min pretreatment, adhesion 1 hr at 25° C.
Procedure: (§1) Pretreated cells were allowed to adhere for 1 hr at 25° C., and after non-adherent cells were washed away, the number of adherent cells for each condition was estimated using the MTS cell viability assay.
(§2) Pretreated cells were allowed to adhere for 1 hr at 25° C., and after non-adherent cells were washed away, the number of adherent cells for each condition was estimated using the MTS cell viability assay. In the cell invasion assay, an invasion chamber consisting of cell culture inserts that fit into 24-well tissue culture plate has been utilized. The inserts contain an 8 μm-pore size polycarbonate membrane, over which a thin layer of ECMatrix™ was applied. The ECMatrix™ serves as an in vitro reconstituted basement membrane and is a solid gel of ECM proteins prepared from the Engelbreth Holm-Swarm (EHS) mouse tumor. The ECM layer occludes the membranes pores, blocking non-invasive cells to migrate through. […] At the 8 hr time point the cells that invaded through the pores into the lower chamber were measured. The numbers of invaded cells for each condition were approximated by quantitating the retrieved labeled DNA using a fluorescent plate reader. The results were calculated in % invasion, where the untreated control was considered as 100% invasion.

[2] = target: T1, GPIIb/IIIa (integrin αIIbβ3) (Homo sapiens, UniProt P05106+P08514); assay: ADP-induced platelet aggregation inhibition assay in platelet-rich plasma; assay type: cell-based; settings: inhibitor added one minute prior to ADP (1 μM)
T1 construct: endogenous in cells; host or cells: platelets in fresh platelet-rich plasma
Procedure: Different concentrations of native CN, Vicrostatin (VN), or rCN conformer were incubated with platelet-rich plasma. Addition of ADP induces platelet aggregation; VN, rCN conformer, or native CN were added one minute prior to ADP.
The recombinant CN products were evaluated for biological activity by a platelet aggregation inhibition assay. According to this assay, CN binding to GPIIb/IIIa (integrin αIIbβ3) in an RGD dependent manner inhibits ADP induced platelet aggregation (Trikha, Rote et al. 1994). In this assay, potential inhibitors are added to fresh platelet-rich plasma, and after minute, ADP is added to a final concentration of 1 μM to induce aggregation. If inhibitor is present, functional aggregation will not occur. The IC50 is defined as the concentration at which 50% of the activity is inhibited, and is used as a measure of the potency of an inhibitor.

[3] = Liposome encapsulation, size and stability (BCA protein assay after liposome disruption); assay type: physicochemical
Procedure: Endotoxin-free VN containing liposomes (referred to as LVN) and endotoxin-free native CN containing liposomes (referred to as LCN) were prepared utilizing a probe sonication previously described (Fujii, Chang et al. 1997). Briefly, the lipids (disteroylphosphatidylcholine, cholesterol and polyethylene glycol derivatized lipid) were dissolved in a chloroform/methanol solution. Thin lipid films were created by pipetting aliquots of the lipid solution into round bottom glass tubes followed by solvent evaporation at 65° C. under a stream of nitrogen gas. The films were placed under vacuum for at least 24 hours to remove residual organic solvent. Liposomes formed following hydration of the lipid films with native CN or VN dissolved in 10 mM sodium phosphate, 9% sucrose, pH 7.2. The mixture was incubated at 65° C. for 5-10 minutes. Hydration was followed by probe sonication until the suspension was translucent. […]
The concentration of liposome entrapped CN/VN was determined by disruption of the liposomes with chloroform/methanol/water (10:40:50) followed by centrifugation at 14,000×g. The supernatant was analyzed for CN/VN concentration using BCA protein assay (Smith, Krohn et al. 1985). The encapsulation efficiency was assessed by BCA protein determination following disruption of the LrCN with a solution of H2O:methanol:chloroform.

[4] = system: MDA-MB-435 breast carcinoma cells; assay: Inhibition of MDA-MB-435 cell adhesion to immobilized vitronectin (MTS readout); assay type: cell-based, human; settings: 0-1000 nM, 30 min pretreatment, adhesion 1 hr at 25° C.
Procedure: as §1, §2

B1: contortrostatin (protein)
chain: DAPANPCCDAATCKLTTGSQCADGLCCDQCKFMKEGTVCRRARGDDLDDYCNGISAGCPRNPFH
inhibition of MDA-MB-435 cell adhesion to immobilized fibronectin (Fn) [1]: inhibited adhesion | IC50 [2]: ~60 nM | protein in the encapsulation solution entrapped within the liposomes [3]: 80% | inhibition of MDA-MB-435 cell adhesion to immobilized vitronectin (Vn) [4]: inhibited adhesion
